Experimental data published in patent publication US20240409629A1 (CHIA TAI TIANQING PHARMACEUTICAL GROUP, published 2024).
Numbering of substitutions follows the chain as printed. Read-outs that look alike come from different tables or passages of the source.

B1: chimeric antibody xi34G6 (antibody, human IgG1, kappa, V domains shown)
VH: QVQLKESGPDLVAPSQSLSITCTVSGFSLTSYGVHWVRQPPGKGLEWLVVIWSDGSTTYNSALKSRLSISKDNSKSQVFLKMNSLQTDDTAIYYCARHAYYGNSFDYWGQGTTLTVSS
VL: DIVMTQSPSSLTVTAGEKVTMSCKSSQSLLNSGNQKSYLTWYQQKPGQPPKLLIYWASTRESGVPDRFTGSGSGTDFTLTISSVQAEDLAVYYCQNVYIFPLTFGAGTKLELKR
notes: Mouse variable regions on human IgG1/kappa; defucosylated, expressed in FUT8-knockout CHO-S cells; also called chimeric 34G6
B2: chimeric antibody xi40F6 (antibody, human IgG1, kappa, V domains shown)
VH: QVQLKESGPGLVAPSQSLSITCTVSGFSLTSYGVYWVRQSPGKGLEWLGVVWAGGNTNYNSALMSRLSISKDNSKSQVFLKMNSLQTDDTAMYYCARDRGRLLAMDYWGQGTSVTVSS
VL: DVVMTQSPSSLSVSAGEKVTMSCKSSQSLLNSGNQKNYLAWYQQKPGQPPKLLIYGASTRESGVPDRFTGSGSGTDFTLTISSVQAEDLAVYYCQNDHFFPFTFGSGTKLEIKR
notes: Mouse variable regions on human IgG1/kappa; defucosylated, expressed in FUT8-knockout CHO-S cells; also called chimeric 40F6
B3: IMAB362 (antibody, human IgG1, kappa, V domains shown)
VH: QVQLQQPGAELVRPGASVKLSCKASGYTFTSYWINWVKQRPGQGLEWIGNIYPSDSYTNYNQKFKDKATLTVDKSSSTAYMQLSSPTSEDSAVYYCTRSWRGNSFDYWGQGTTLTVSS
VL: B1 VL with S37N, V97D, I99S, F100Y, L102F, A106S, L112I
notes: Positive control, prepared in-house; also called Claudiximab; TMAB362 [sic]

Tests used:
human CLDN18.2 [1] = target: human CLDN18.2 (human); experiment: cell-based or functional assay
human CLDN18.2 [2] = target: human CLDN18.2 (human); experiment: cell-based or functional assay; remark: listed apart in the source
human CLDN18.2 [3] = target: human CLDN18.2 (human); experiment: cell-based or functional assay; remark: listed apart in the source
human CLDN18.2 [4] = target: T1, human CLDN18.2 (human); experiment: FACS, U2OS-CLDN18.2 cells
T1 construct: also called claudin18.2
Method: (§1) Based on the FACS method, the binding activity of anti-CLDN18.2 antibodies for the cell line U2OS-CLDN18.2 overexpressing CLDN18.2 and the cell lines KATOIII (Cell Bank of the Chinese Academy of Sciences) and NUGC-4 (Cell Bank of the Chinese Academy of Sciences) naturally expressing CLDN18.2 was analyzed.
(§2) The cell concentration was adjusted with PBS, and cells (U2OS-CLDN18.2, KATOIII, or NUGC-4 cells) were added to a 96-well plate at 3×10⁵ cells/well, then the test antibodies at different concentrations were added to each well of the 96-well plate, and the mixture was incubated at 4° C. for 60 min. […] The supernatant was discarded, the cells were washed 3 times with pre-cooled PBS buffer, PE-Goat Anti-Human IgG Fcγ (Jackson immunoresearch, Cat. No. 109-116-170) diluted at 1:200 was added at 100 μL/well, and the mixture was incubated at 4° C. for 30 min. Cells were washed 3 times with pre-cooled PBS buffer and resuspended in 100 μL of PBS buffer, and then the fluorescence signals were detected using a flow cytometer (Sartorius, iQUE3). The binding ability of the anti-CLDN18.2 antibodies for CLDN18.2 was measured by mean fluorescence intensity (MFI) of staining.

human CLDN18.2 [5] = target: T1, human CLDN18.2; experiment: FACS, NUGC-4 cells (natural CLDN18.2)
Method: as §1, §2

human CLDN18.2 [6] = target: T1, human CLDN18.2; experiment: FACS, KATOIII cells (natural CLDN18.2)
Method: as §1, §2

human CLDN18.1 [7] = target: T2, human CLDN18.1 (human, UniProt P56856 1-261); experiment: FACS, U2OS-CLDN18.1 cells, antibody at 200 nM
T2 construct: also called claudin18.1
Method: (§3) Based on the FACS method, the binding activity of anti-CLDN18.2 antibodies for the cell line U2OS-CLDN18.1 overexpressing CLDN18.1 (SEQ ID NO: 2) was analyzed. The cell concentration was adjusted with PBS, and the U2OS-CLDN18.1 cells were added to a 96-well plate at 3×10⁵ cells/well, then the test antibodies were added to each well of the 96-well plate, the final concentration of the antibody was 200 nM, and the mixture was incubated at 4° C. for 60 min. The supernatant was discarded, the cells were washed 3 times with pre-cooled PBS buffer, PE-Goat Anti-Human IgG Fcγ (Jackson immunoresearch, Cat. No. 109-116-170) diluted at 1:200 was added at 100 μL/well, and the mixture was incubated at 4° C. for 30 min. Cells were washed 3 times with pre-cooled PBS buffer and resuspended in 100 μL of PBS buffer, and then the fluorescence signals were detected using a flow cytometer (Sartorius, iQUE3). The nonspecific binding of the anti-CLDN18.2 antibodies for U2OS-CLDN18.1 cells was measured by mean fluorescence intensity (MFI) of staining. The IgG1 isotype control antibody (prepared in-house, with the heavy and light chain amino acid sequences as set forth in SEQ ID NOs: 67 and 68 in the present disclosure) was used as the control, and 2-fold the IgG1 isotype control antibody was used as the benchmark, thus determining the presence or absence of nonspecific binding.

human CLDN18.1 [8] = target: T2, human CLDN18.1; experiment: FACS, U2OS-CLDN18.1 cells; MFI against 2-fold the IgG1 isotype control
Method: as §3

human CLDN18.2 [9] = target: T1, human CLDN18.2; experiment: cell-based or functional assay; remark: listed apart in the source
human CLDN18.2 [10] = target: T1, human CLDN18.2; experiment: cell-based or functional assay; remark: listed apart in the source
human CLDN18.2 [11] = target: T1, human CLDN18.2; experiment: FACS, U2OS-CLDN18.2 cells; remark: listed apart in the source
Method: as §1, §2

human CLDN18.2 [12] = target: T1, human CLDN18.2; experiment: FACS, NUGC-4 cells (natural CLDN18.2); remark: listed apart in the source
Method: as §1, §2

human CLDN18.2 [13] = target: T1, human CLDN18.2; experiment: FACS, NUGC-4 cells (natural CLDN18.2); remark: listed apart in the source
Method: (§4) Based on the FACS method, the binding activity of anti-CLDN18.2 humanized antibodies for the cell lines KATOIII (Cell Bank of the Chinese Academy of Sciences) and NUGC-4 (Cell Bank of the Chinese Academy of Sciences) naturally expressing CLDN18.2 was analyzed. […] See Example 3 for the specific method.

human CLDN18.2 [14] = target: T1, human CLDN18.2; experiment: FACS, KATOIII cells (natural CLDN18.2); remark: listed apart in the source
Method: as §4

human CLDN18.2 [15] = target: T1, human CLDN18.2; experiment: cell-based or functional assay; remark: listed apart in the source
human CLDN18.2 [16] = target: T1, human CLDN18.2; experiment: FACS, U2OS-CLDN18.2 cells; remark: listed apart in the source
Method: as §1, §2

human CLDN18.2 [17] = target: T1, human CLDN18.2; experiment: FACS, NUGC-4 cells (natural CLDN18.2); remark: listed apart in the source
Method: as §1, §2

human CLDN18.2 [18] = target: T1, human CLDN18.2; experiment: FACS, NUGC-4 cells (natural CLDN18.2); remark: listed apart in the source
Method: as §4

human CLDN18.2 [19] = target: T1, human CLDN18.2; experiment: FACS, KATOIII cells (natural CLDN18.2); remark: listed apart in the source
Method: as §1, §2

human CLDN18.2 [20] = target: T1, human CLDN18.2; experiment: FACS, KATOIII cells (natural CLDN18.2); remark: listed apart in the source
Method: as §4

Binder | ADCC EC50, Jurkat-CD16a v158-NFAT-luciferase effector cells, KATOIII target cells (human CLDN18.2 [1]) | ADCC EC50, Jurkat-CD16a v158-NFAT-luciferase effector cells, NUGC-4 target cells (human CLDN18.2 [1]) | ADCC EC50, Jurkat-CD16a v158-NFAT-luciferase effector cells, U2OS-CLDN18.2 target cells (human CLDN18.2 [1]) | ADCC EC50, PBMC effector cells, NUGC-4 target cells (human CLDN18.2 [2]) | ADCC Maximum killing (%), PBMC effector cells, NUGC-4 target cells (human CLDN18.2 [2]) | CDC EC50, KATOIII target cells (human CLDN18.2 [3]) | CDC EC50, U2OS-CLDN18.2 target cells (human CLDN18.2 [3]) | EC50 (human CLDN18.2 [4]) | EC50 (human CLDN18.2 [5]) | EC50 (human CLDN18.2 [6]) | MFI (human CLDN18.1 [7]) | binding result (human CLDN18.1 [8]) | ADCC EC50, Jurkat-CD16a v158-NFAT-luciferase effector cells, NIH-3T3-CLDN18.2 target cells (human CLDN18.2 [9]) | ADCC EC50, Jurkat-CD16a v158-NFAT-luciferase effector cells, NUGC-4 target cells (human CLDN18.2 [9]) | CDC EC50, NIH-3T3-CLDN18.2 target cells (human CLDN18.2 [10]) | EC50 (human CLDN18.2 [11]) | EC50 (human CLDN18.2 [12]) | EC50 (human CLDN18.2 [13]) | EC50 (human CLDN18.2 [14]) | also measured
B1 | 0.064 nM | 0.214 nM | 0.06 nM | 0.62 nM | 40.9% | 0.302 nM | 1.77 nM | 4.28 nM | 19.9 nM | 1.79 nM | 7630 | no binding (tested: 200 nM) |  |  |  |  |  |  |  | 
B2 | 0.03 nM | 0.147 nM | 0.032 nM | 0.8 nM | 45.2% | 0.127 nM | 1.07 nM |  |  | 5.97 nM | 7070 | no binding (tested: 200 nM) | 0.014 nM | ~0.014 nM | 0.29 nM | 4.47 nM | 12.5 nM | 12.5 nM | 7.02 nM | 
B3 | 1.52 nM | 12 nM | 0.05 nM | 37.1 nM | 29.1% | 12.8 nM | 9.79 nM | 16.2 nM | 202 nM | ~26900 nM | 6220 |  | 0.023 nM | 0.856 nM | 24.4 nM | 22.9 nM | 567 nM | 567 nM | 38.2 nM | ADCC EC50, PBMC effector cells, KATOIII target cells (human CLDN18.2 [2]): ~0.123 nM; ADCC Maximum killing (%), PBMC effector cells, KATOIII target cells (human CLDN18.2 [2]): 20.7%; ADCC EC50, Jurkat-CD16a v158-NFAT-luciferase effector cells, KATOIII target cells (human CLDN18.2 [15]): 16.9 nM; ADCC EC50, Jurkat-CD16a v158-NFAT-luciferase effector cells, U2OS-CLDN18.2 target cells (human CLDN18.2 [15]): 0.014 nM; EC50 (human CLDN18.2 [16]): 16 nM; EC50 (human CLDN18.2 [17]): 1450 nM; EC50 (human CLDN18.2 [18]): 293 nM; EC50 (human CLDN18.2 [19]): 81.3 nM; EC50 (human CLDN18.2 [20]): 16.3 nM
